Experimental data as given in patent publication US20030200555A1.

Target: APP695-derived polypeptide (SEQ.ID.NO.: 28) having the modified sequence NLDV (SEQ.ID.NO.: 7) (human) (UniProt P05067)
Experiment: cell-based or functional assay

In the case of “β-secretase (of the HEK293T cells in which the APP β-site mutants were expressed) (from UniProt P56817 46-501) (enzyme)”, the production of Aβ in the HEK293T cells (times the level of wild type APP695) is reported as 3.
